From patent publication US20210032299A1 come the findings set out here.

Starred links: 1 amine or outer side, 2 acyl side, 3 side chain; linkers in the order of their positions; H or OH if unused. Non-standard residues stand in square brackets, D forms with d. Groups on a side chain read outwards from the residue. No end group written: not given here. *: point of attachment. C20 diacid = O=C(O)CCCCCCCCCCCCCCCCCCC(=O)*; αMePhe(2-F) = C[C@](N)(Cc1ccccc1F)C(=O)O; γGlu = O=C(O)[C@H](CCC(=O)[*:2])N[*:1]; 4Pal = N[C@@H](Cc1ccncc1)C(=O)O; αMeL = CC(C)C[C@](C)(N)C(=O)O; Orn = NCCC[C@H](N)C(=O)O; AEEA = NCCOCCOCC(=O)O; Aib = CC(C)(N)C(=O)O

First the molecules themselves.
T1: human glucose-dependent insulinotropic polypeptide (GIP) receptor (human), P48546
T1 chain: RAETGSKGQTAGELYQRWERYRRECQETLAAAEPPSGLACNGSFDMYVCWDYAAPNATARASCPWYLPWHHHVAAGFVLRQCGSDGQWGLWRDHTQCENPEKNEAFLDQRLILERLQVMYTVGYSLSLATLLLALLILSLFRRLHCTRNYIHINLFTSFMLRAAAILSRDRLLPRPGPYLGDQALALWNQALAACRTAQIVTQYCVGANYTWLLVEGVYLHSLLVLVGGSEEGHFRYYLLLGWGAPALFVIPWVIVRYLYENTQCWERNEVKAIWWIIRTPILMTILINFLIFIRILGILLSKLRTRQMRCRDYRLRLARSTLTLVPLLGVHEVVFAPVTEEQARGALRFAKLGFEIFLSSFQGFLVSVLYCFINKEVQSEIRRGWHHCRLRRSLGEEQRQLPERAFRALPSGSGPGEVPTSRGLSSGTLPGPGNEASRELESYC

B1: Example 106 (peptide)
peptide: Y[Aib]EGTFISDYSI[αMeL]LD[Orn]IHQ[Aib]EFVEYK([AEEA-AEEA-γGlu-C20 diacid])LEQGPSSGAPPPS-NH2
modifications: N-terminus assumed
SMILES: CC[C@H](C)[C@H](NC(=O)[C@H](CCCN)NC(=O)[C@H](CC(=O)O)NC(=O)[C@H](CC(C)C)NC(=O)[C@](C)(CC(C)C)NC(=O)[C@@H](NC(=O)[C@H](CO)NC(=O)[C@H](Cc1ccc(O)cc1)NC(=O)[C@H](CC(=O)O)NC(=O)[C@H](CO)NC(=O)[C@@H](NC(=O)[C@H](Cc1ccccc1)NC(=O)[C@@H](NC(=O)CNC(=O)[C@H](CCC(=O)O)NC(=O)C(C)(C)NC(=O)[C@@H](N)Cc1ccc(O)cc1)[C@@H](C)O)[C@@H](C)CC)[C@@H](C)CC)C(=O)N[C@@H](Cc1c[nH]cn1)C(=O)N[C@@H](CCC(N)=O)C(=O)NC(C)(C)C(=O)N[C@@H](CCC(=O)O)C(=O)N[C@@H](Cc1ccccc1)C(=O)N[C@H](C(=O)N[C@@H](CCC(=O)O)C(=O)N[C@@H](Cc1ccc(O)cc1)C(=O)N[C@@H](CCCCNC(=O)COCCOCCNC(=O)COCCOCCNC(=O)CC[C@H](NC(=O)CCCCCCCCCCCCCCCCCCC(=O)O)C(=O)O)C(=O)N[C@@H](CC(C)C)C(=O)N[C@@H](CCC(=O)O)C(=O)N[C@@H](CCC(N)=O)C(=O)NCC(=O)N1CCC[C@H]1C(=O)N[C@@H](CO)C(=O)N[C@@H](CO)C(=O)NCC(=O)N[C@@H](C)C(=O)N1CCC[C@H]1C(=O)N1CCC[C@H]1C(=O)N1CCC[C@H]1C(=O)N[C@@H](CO)C(N)=O)C(C)C
B2: Example 99 (peptide)
peptide: Y[Aib]EGT[αMePhe(2-F)]ISDYSIALDKIHQ[Aib]DFVEYK([AEEA-AEEA-γGlu-C20 diacid])LEGGPSSGAPPPS-NH2
modifications: N-terminus assumed
SMILES: CC[C@H](C)[C@H](NC(=O)[C@H](CO)NC(=O)[C@H](Cc1ccc(O)cc1)NC(=O)[C@H](CC(=O)O)NC(=O)[C@H](CO)NC(=O)[C@@H](NC(=O)[C@](C)(Cc1ccccc1F)NC(=O)[C@@H](NC(=O)CNC(=O)[C@H](CCC(=O)O)NC(=O)C(C)(C)NC(=O)[C@@H](N)Cc1ccc(O)cc1)[C@@H](C)O)[C@@H](C)CC)C(=O)N[C@@H](C)C(=O)N[C@@H](CC(C)C)C(=O)N[C@@H](CC(=O)O)C(=O)N[C@@H](CCCCN)C(=O)N[C@H](C(=O)N[C@@H](Cc1c[nH]cn1)C(=O)N[C@@H](CCC(N)=O)C(=O)NC(C)(C)C(=O)N[C@@H](CC(=O)O)C(=O)N[C@@H](Cc1ccccc1)C(=O)N[C@H](C(=O)N[C@@H](CCC(=O)O)C(=O)N[C@@H](Cc1ccc(O)cc1)C(=O)N[C@@H](CCCCNC(=O)COCCOCCNC(=O)COCCOCCNC(=O)CC[C@H](NC(=O)CCCCCCCCCCCCCCCCCCC(=O)O)C(=O)O)C(=O)N[C@@H](CC(C)C)C(=O)N[C@@H](CCC(=O)O)C(=O)NCC(=O)NCC(=O)N1CCC[C@H]1C(=O)N[C@@H](CO)C(=O)N[C@@H](CO)C(=O)NCC(=O)N[C@@H](C)C(=O)N1CCC[C@H]1C(=O)N1CCC[C@H]1C(=O)N1CCC[C@H]1C(=O)N[C@@H](CO)C(N)=O)C(C)C)[C@@H](C)CC
B3: Example 100 (peptide)
peptide: Y[Aib]EGTFISDYSI[αMeL]LDKIHQ[Aib]EFVE[4Pal]K([AEEA-AEEA-γGlu-C20 diacid])LEGGPSSGAPPPS-NH2
modifications: N-terminus assumed
SMILES: CC[C@H](C)[C@H](NC(=O)[C@H](CCCCN)NC(=O)[C@H](CC(=O)O)NC(=O)[C@H](CC(C)C)NC(=O)[C@](C)(CC(C)C)NC(=O)[C@@H](NC(=O)[C@H](CO)NC(=O)[C@H](Cc1ccc(O)cc1)NC(=O)[C@H](CC(=O)O)NC(=O)[C@H](CO)NC(=O)[C@@H](NC(=O)[C@H](Cc1ccccc1)NC(=O)[C@@H](NC(=O)CNC(=O)[C@H](CCC(=O)O)NC(=O)C(C)(C)NC(=O)[C@@H](N)Cc1ccc(O)cc1)[C@@H](C)O)[C@@H](C)CC)[C@@H](C)CC)C(=O)N[C@@H](Cc1c[nH]cn1)C(=O)N[C@@H](CCC(N)=O)C(=O)NC(C)(C)C(=O)N[C@@H](CCC(=O)O)C(=O)N[C@@H](Cc1ccccc1)C(=O)N[C@H](C(=O)N[C@@H](CCC(=O)O)C(=O)N[C@@H](Cc1ccncc1)C(=O)N[C@@H](CCCCNC(=O)COCCOCCNC(=O)COCCOCCNC(=O)CC[C@H](NC(=O)CCCCCCCCCCCCCCCCCCC(=O)O)C(=O)O)C(=O)N[C@@H](CC(C)C)C(=O)N[C@@H](CCC(=O)O)C(=O)NCC(=O)NCC(=O)N1CCC[C@H]1C(=O)N[C@@H](CO)C(=O)N[C@@H](CO)C(=O)NCC(=O)N[C@@H](C)C(=O)N1CCC[C@H]1C(=O)N1CCC[C@H]1C(=O)N1CCC[C@H]1C(=O)N[C@@H](CO)C(N)=O)C(C)C
B4: Example 112 (peptide)
peptide: Y[Aib]EGT[αMePhe(2-F)]ISDYSIALDKIHQ[Aib]DFVE[4Pal]K([AEEA-AEEA-γGlu-C20 diacid])LEGGPSSGAPPPS-NH2
modifications: N-terminus assumed
SMILES: CC[C@H](C)[C@H](NC(=O)[C@H](CO)NC(=O)[C@H](Cc1ccc(O)cc1)NC(=O)[C@H](CC(=O)O)NC(=O)[C@H](CO)NC(=O)[C@@H](NC(=O)[C@](C)(Cc1ccccc1F)NC(=O)[C@@H](NC(=O)CNC(=O)[C@H](CCC(=O)O)NC(=O)C(C)(C)NC(=O)[C@@H](N)Cc1ccc(O)cc1)[C@@H](C)O)[C@@H](C)CC)C(=O)N[C@@H](C)C(=O)N[C@@H](CC(C)C)C(=O)N[C@@H](CC(=O)O)C(=O)N[C@@H](CCCCN)C(=O)N[C@H](C(=O)N[C@@H](Cc1c[nH]cn1)C(=O)N[C@@H](CCC(N)=O)C(=O)NC(C)(C)C(=O)N[C@@H](CC(=O)O)C(=O)N[C@@H](Cc1ccccc1)C(=O)N[C@H](C(=O)N[C@@H](CCC(=O)O)C(=O)N[C@@H](Cc1ccncc1)C(=O)N[C@@H](CCCCNC(=O)COCCOCCNC(=O)COCCOCCNC(=O)CC[C@H](NC(=O)CCCCCCCCCCCCCCCCCCC(=O)O)C(=O)O)C(=O)N[C@@H](CC(C)C)C(=O)N[C@@H](CCC(=O)O)C(=O)NCC(=O)NCC(=O)N1CCC[C@H]1C(=O)N[C@@H](CO)C(=O)N[C@@H](CO)C(=O)NCC(=O)N[C@@H](C)C(=O)N1CCC[C@H]1C(=O)N1CCC[C@H]1C(=O)N1CCC[C@H]1C(=O)N[C@@H](CO)C(N)=O)C(C)C)[C@@H](C)CC
B5: Example 107 (peptide)
peptide: Y[Aib]EGTFISDYSI[αMeL]LD[Orn]IHQ[Aib]EFVEYK([AEEA-AEEA-γGlu-C20 diacid])LEGGPSSGAPPPS-NH2
modifications: N-terminus assumed
SMILES: CC[C@H](C)[C@H](NC(=O)[C@H](CCCN)NC(=O)[C@H](CC(=O)O)NC(=O)[C@H](CC(C)C)NC(=O)[C@](C)(CC(C)C)NC(=O)[C@@H](NC(=O)[C@H](CO)NC(=O)[C@H](Cc1ccc(O)cc1)NC(=O)[C@H](CC(=O)O)NC(=O)[C@H](CO)NC(=O)[C@@H](NC(=O)[C@H](Cc1ccccc1)NC(=O)[C@@H](NC(=O)CNC(=O)[C@H](CCC(=O)O)NC(=O)C(C)(C)NC(=O)[C@@H](N)Cc1ccc(O)cc1)[C@@H](C)O)[C@@H](C)CC)[C@@H](C)CC)C(=O)N[C@@H](Cc1c[nH]cn1)C(=O)N[C@@H](CCC(N)=O)C(=O)NC(C)(C)C(=O)N[C@@H](CCC(=O)O)C(=O)N[C@@H](Cc1ccccc1)C(=O)N[C@H](C(=O)N[C@@H](CCC(=O)O)C(=O)N[C@@H](Cc1ccc(O)cc1)C(=O)N[C@@H](CCCCNC(=O)COCCOCCNC(=O)COCCOCCNC(=O)CC[C@H](NC(=O)CCCCCCCCCCCCCCCCCCC(=O)O)C(=O)O)C(=O)N[C@@H](CC(C)C)C(=O)N[C@@H](CCC(=O)O)C(=O)NCC(=O)NCC(=O)N1CCC[C@H]1C(=O)N[C@@H](CO)C(=O)N[C@@H](CO)C(=O)NCC(=O)N[C@@H](C)C(=O)N1CCC[C@H]1C(=O)N1CCC[C@H]1C(=O)N1CCC[C@H]1C(=O)N[C@@H](CO)C(N)=O)C(C)C
B6: Example 113 (peptide)
peptide: Y[Aib]EGT[αMePhe(2-F)]ISDYSIALDKIHQ[Aib]DFVE[4Pal]K([AEEA-AEEA-γGlu-C20 diacid])LEAGPSSGAPPPS-NH2
modifications: N-terminus assumed
SMILES: CC[C@H](C)[C@H](NC(=O)[C@H](CO)NC(=O)[C@H](Cc1ccc(O)cc1)NC(=O)[C@H](CC(=O)O)NC(=O)[C@H](CO)NC(=O)[C@@H](NC(=O)[C@](C)(Cc1ccccc1F)NC(=O)[C@@H](NC(=O)CNC(=O)[C@H](CCC(=O)O)NC(=O)C(C)(C)NC(=O)[C@@H](N)Cc1ccc(O)cc1)[C@@H](C)O)[C@@H](C)CC)C(=O)N[C@@H](C)C(=O)N[C@@H](CC(C)C)C(=O)N[C@@H](CC(=O)O)C(=O)N[C@@H](CCCCN)C(=O)N[C@H](C(=O)N[C@@H](Cc1c[nH]cn1)C(=O)N[C@@H](CCC(N)=O)C(=O)NC(C)(C)C(=O)N[C@@H](CC(=O)O)C(=O)N[C@@H](Cc1ccccc1)C(=O)N[C@H](C(=O)N[C@@H](CCC(=O)O)C(=O)N[C@@H](Cc1ccncc1)C(=O)N[C@@H](CCCCNC(=O)COCCOCCNC(=O)COCCOCCNC(=O)CC[C@H](NC(=O)CCCCCCCCCCCCCCCCCCC(=O)O)C(=O)O)C(=O)N[C@@H](CC(C)C)C(=O)N[C@@H](CCC(=O)O)C(=O)N[C@@H](C)C(=O)NCC(=O)N1CCC[C@H]1C(=O)N[C@@H](CO)C(=O)N[C@@H](CO)C(=O)NCC(=O)N[C@@H](C)C(=O)N1CCC[C@H]1C(=O)N1CCC[C@H]1C(=O)N1CCC[C@H]1C(=O)N[C@@H](CO)C(N)=O)C(C)C)[C@@H](C)CC

Sequence of human glucagon receptor (human), P47871 (P47871 26-477): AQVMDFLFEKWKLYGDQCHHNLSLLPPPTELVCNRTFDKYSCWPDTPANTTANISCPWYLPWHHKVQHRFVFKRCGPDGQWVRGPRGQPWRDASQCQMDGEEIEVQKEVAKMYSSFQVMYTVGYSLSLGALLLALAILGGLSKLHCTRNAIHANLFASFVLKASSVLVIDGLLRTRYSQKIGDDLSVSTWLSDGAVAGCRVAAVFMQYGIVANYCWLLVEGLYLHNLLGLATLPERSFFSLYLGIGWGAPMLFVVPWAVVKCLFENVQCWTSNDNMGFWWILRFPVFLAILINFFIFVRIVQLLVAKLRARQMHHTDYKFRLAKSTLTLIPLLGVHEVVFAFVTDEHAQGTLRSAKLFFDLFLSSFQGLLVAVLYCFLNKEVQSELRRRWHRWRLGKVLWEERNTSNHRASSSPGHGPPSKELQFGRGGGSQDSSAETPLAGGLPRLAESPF

The target of one test is T1, human glucose-dependent insulinotropic …. As to the kind of experiment: SPA, displacement of [125I]-GIP from hGIPR membranes, 0.1% bacitracin.
Take B1: the inhibition constant Ki turned out to be 0.0918 nM.

In the case of B2, the Ki amounted to 0.0341 nM.

As to B3, the Ki is 0.0674 nM.

B4 gave a Ki of 0.0742 nM.

In the case of B5, the Ki was 0.0722 nM.

With B6, the Ki turned out to be 0.108 nM.

The next test has as its target human glucagon receptor (human), P47871. The test can be described thus: SPA, displacement of [125I]-Gcg from hGcgR membranes, 0.1% bacitracin.
Consider B1, for which the Ki turned out to be 304 nM.

B2: the Ki stood at 174 nM.

Turning to B3, the inhibitory constant (Ki) came out at 572 nM.

Molecule B4 returned a Ki of 257 nM. Compared with the last molecule, the Ki is about 2.2-fold lower.

Consider B5, for which the Ki was 347 nM.

On to B6, for which the Ki came out at 821 nM.
